Measured values reported in PMC7755911.

Biological target: Biotinylated SARS-CoV-2 S protein RBD with a C-terminal AviTag (SARS-CoV-2) (UniProt P0DTC2)
Assay: BLI

Chain of NIH-CoVnb-112 (VHH) (VHH): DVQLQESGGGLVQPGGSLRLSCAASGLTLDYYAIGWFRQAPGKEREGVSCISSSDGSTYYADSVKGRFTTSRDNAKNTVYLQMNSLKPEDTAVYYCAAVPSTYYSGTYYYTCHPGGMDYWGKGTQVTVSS

NIH-CoVnb-112 (VHH)
Kd: 4.9 nM | koff: 0.000654 s⁻¹ | kon: 130000 M⁻¹ s⁻¹
